{
  "source": "patent US7012128B2",
  "about": "“Interaction between cyclin D1 and steroid receptor co-activators and uses thereof in assays” (TopoTarget UK Limited, priority 1998, dated 2006)",
  "molecules": {"B1": {"name": "SRC1-DN: dominant negative mutant of SRC-1 encoding amino acids 1245-1441 of SRC-1 (protein, UniProt Q15788 1245-1441, looked up, fragment)", "chain": "FAPSLSPGSSMVPMPIPPPQSSLLQQTPPASGYQSPDMKAWQQGAIGNNNVFSQAVQNQPTPAQPGVYNNMSITVSMAGGNTNVQNMNPMMAQMQMSSLQMPGMNTVCPEQINDPALRHTGLYCNQLSSTDLLKTEADGTQQVQQVQVFADVQCTVNLVGGDPYLNQPGPLGTQKPTSGPQTPQAQQKSLLQQLLTE"}},
  "format_in_all_cases": "cell-based",
  "key": {"[1]": {"target": "E2F-1 transcription factor (Homo sapiens, UniProt Q01094)", "sequence (Q01094 whole entry)": "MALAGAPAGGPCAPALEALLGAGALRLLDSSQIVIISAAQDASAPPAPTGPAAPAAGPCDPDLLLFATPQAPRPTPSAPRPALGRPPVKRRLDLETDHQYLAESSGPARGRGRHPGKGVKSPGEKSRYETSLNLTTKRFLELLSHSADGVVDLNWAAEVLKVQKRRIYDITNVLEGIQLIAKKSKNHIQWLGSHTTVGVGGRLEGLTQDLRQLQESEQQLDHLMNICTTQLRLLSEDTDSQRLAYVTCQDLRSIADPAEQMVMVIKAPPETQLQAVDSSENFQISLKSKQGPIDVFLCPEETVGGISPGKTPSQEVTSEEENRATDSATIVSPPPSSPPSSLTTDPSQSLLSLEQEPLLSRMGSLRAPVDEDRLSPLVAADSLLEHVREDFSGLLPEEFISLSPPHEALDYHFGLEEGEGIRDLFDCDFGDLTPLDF", "test": "Effect on E2F-1 transcription factor (data not shown)"}, "[2]": {"test_system": "ER 1-535 and ER L543/544A mutants", "test": "ERE-TATA-luciferase transactivation of AF-2 mutant ERs in COS-7 cells", "conditions": "COS-7, 1, 2.5, 5 μg SRC1-DN, 10 nM ligand", "method": "FIG. 2. Effect of cyclin D1 on helix 12 mutants of ER. The effect of cyclin D1 on ER mutants was tested in COS-7 cells (A, B) and in U2-OS cells (C, D) in the presence of ligand. An ERE-TATA-luciferase reporter construct was used in transient transfections together with cyclin D1 and ER 1-535 (A, C) or ER L543/544A mutants (B, D). β-Galactosidase served as an internal control. The reporter activity was determined both in the presence (black bars) and in the absence (white bars) of 10 nM 17β-estradiol. The relative luciferase activity was calculated by normalizing to the b-galactosidase activity. The relative reporter activity of wild type ER in the presence of ligand was used as a reference and set at 100%. […] The transfection were performed in at least five separate experiments and expressed as average ±SD.\nFIG. 3. Role of coactivators in cyclin D1—induced transactivation. • (A) Effect of a dominant negative form of SRC-1 (SRC1-DN) on ER transactivation. […] The relative activity was calculated by normalizing to the internal control and was divided by luciferase activity of ER (mutant) in the presence of ligand. The transfection for each set of conditions were done at least in four independent experiments and expressed as average ±SD. […]"}, "[3]": {"test_system": "wild type ER", "test": "ERE-TATA-luciferase transactivation of wild type ER in COS-7 cells", "conditions": "COS-7, 3 μg SRC1-DN, 10 nM ligand", "method": "FIG. 1. Mapping of the region of cyclin D1 required for ER-mediated transactivation. • (A) The effect of cyclin D1 deletion mutants on ER activation in the presence of ligand. The cyclin D1 derivatives used in this study are shown in the left panel; right side of Figure represents the relative capacity of the mutants to potentiate ERE-dependent transcription. ER-negative COS-7 cells were transfected with expression vectors for wild type ER (200 ng), cyclin D1 or cyclin D1 mutants (2.5 μg), an internal control §-galactosidase plasmid (0.5 μg) and an ERE-TATA-luciferase reporter (3 μg). The effect on ER transactivation of wild type cyclin D1 was set to 100%. These studies were performed in three separate experiments and expressed as mean values with standard deviation less then […]. The alignment of leucine-rich motif of ER with D-type cyclins are shown on the bottom; the leucine-rich motif in cyclin D1 is indicated as a dark box. The identifiers for the sequences shown are as follows: Cyclin D1 (SEQ ID NO:11), Estrogen receptor (SEQ ID NO:12), the Cyclin D2 (SEQ ID NO:13), and the Cyclin D3 (SEQ ID NO:14). • (B) ER activation by D-type cyclins, cyclin D1 L254/255A point mutant (D1-LALA) and SRC-1 in the presence of ligand. COS-7 cells were transfected with D-type cyclin expression vectors, cyclin D1 Leucine-to-Alanine point mutant (D1-LALA) or SRC-1 expression vector together with wild type ER expression vector, an ERE-TATA-luciferase reporter plasmid and the internal control β-galactosidase construct. Data are expressed as relative luciferase activity compared with basal ERE-luciferase activity of wild type ER and are normalized for transfection efficiencies.\nFIG. 3. Role of coactivators in cyclin D1—induced transactivation. • (A) Effect of a dominant negative form of SRC-1 (SRC1-DN) on ER transactivation. SRC1-DN encoding amino acids 1245-1441 of SRC-1 (1, 2.5 and 5 μg) was introduced by transient transfection together with wild type ER (200 ng) and was tested for its ability to modulate ERE-dependent transcription. • (B) Effect of SRCI-DN on SRC-1 and TIF 2 mediated ER transactivation. SRC-1 (3 μg) or TIF-2 (3 μg) were transfected with SRC1-DN (3 μg) and tested for ER transactivation. • (C) Effect of SRC1-DN on cyclin D1-induced transactivation of ER 1-535 mutant. Cyclin D1 was cotransfected with SRC1-DN (1, 2.5, 5 μg) and tested for its effect on an ER harboring a deletion of coactivator binding site in helix 12 (ER 1-535). • (D) Effect of SRC1-DN on cyclin D1-induced transactivation of ER L543/544A mutant. Cyclin D1 and SRC1-DN (1, 2.5, 5 gg) were transfected and tested for the activity of ER helix 12 point mutant (ER L543/544A). The transient transfections (A-C) were performed in COS-7 cells, which were maintained in DMEM with 10 nM ligand. The relative activity was calculated by normalizing to the internal control and was divided by luciferase activity of ER (mutant) in the presence of ligand. The transfection for each set of conditions were done at least in four independent experiments and expressed as average ±SD.\nTo study how cyclin D1 activates ER, cyclin D1 deletion mutants were tested for their effect on ER-transactivation. COS-7 cells were transfected with cyclin D1 mutants, together with ER and a luciferase reporter gene construct driven by a minimal TATA promoter linked to an estrogen response element (ERE). […] This part of the protein is not involved in CDK interaction and is poorly conserved among the different cyclins. […] To test the relevance of this leucine-rich domain of cyclin D1 in ER activation, a cyclin D1 mutant was constructed in which leucines 254 and 255 were mutated to alanines (D1 L254/255A). This mutation in cyclin D1 is similar to the mutation in ER (ER L543/544A) that interferes with coactivator binding to AF-2 (Danielian et al., 1992). […]"}},
  "data": [
    {"molecule": "B1", "values": [
      {"measurement": "effect on E2F-1 transcription factor", "setting": "[1]", "result": "inactive"},
      {"measurement": "effect on cyclin D1-induced activation of the ER AF-2 mutants", "setting": "[2]", "result": "markedly repressed"},
      {"measurement": "effect on SRC-1 and TIF2 mediated ER transactivation", "setting": "[3]", "result": "inhibited"}
    ]}
  ]
}
